In the supplement of paper PMC10567573:
± gives the standard deviation.

Test: protein stability index of a GFP-peptide fusion (GPS, HEK-293T) (PSI 1-6); higher = more stable
[1] = treatment: DMSO, c terminus: a fixed tail appended
[2] = treatment: MLN4924 1 uM, 8 h, c terminus: a fixed tail appended
[3] = treatment: DMSO, c terminus: native
[4] = treatment: MLN4924 1 uM, 8 h, c terminus: native
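Also: 24-mer peptide tiles fused after GFP, lentivirally expressed, FACS-sorted into six equal bins by GFP/DsRed ratio, decoded by Illumina sequencing, PSI is the read-weighted mean bin number.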

Sequence	protein stability index [1]	protein stability index [2]	protein stability index [3]	protein stability index [4]
GSRVISHYAGQDATDPFVAFHINK [FADS1]	3.33 ± 0.31	3.35 ± 0.22	–	–
YESTLFEDQVPALEAPEDIGSTSE [MIA2]	5.55 ± 0.23	5.51 ± 0.33	–	–
IFRCFCPVFLHSQMLWELVLLGEP [DENND6A]	3.17 ± 0.39	2.87 ± 0.33	–	–
RTALEYCKLILSLEPDEDPLCMLL [TCF25]	2.24 ± 0.36	2.32 ± 0.3	–	–
VIRKNIVKKCLELFSELAEDKENY [HSP90AB1]	2.33 ± 0.046	–	–	–
ELFPTGKQLEPLVAPLADGKVAVG [VPS39]	3.84 ± 0.25	3.8 ± 0.24	–	–
LVTTHHLMVHGNERFIQYLASRNT [SNAP91]	2.18 ± 0.17	2.07 ± 0.42	–	–
GPMCDLLWSDPDDRGGWGISPRGA [PPP2CA]	3.1 ± 0.42	3.21 ± 0.33	–	–
LTCSLSFLLCARSLLRGFLLQNEF [MCOLN1]	3.34 ± 0.44	2.93 ± 0.46	–	–
QALQAKASLTIPLVPETEDDRKLA [YJU2B]	5.16 ± 0.24	5.24 ± 0.11	–	–
CSSARHPAWGHCFYRLYQDLETHR [SCNN1D]	2.15 ± 0.17	2 ± 0.16	–	–
TICYCPEKGTWTELEGDVAEPLAG [KLHL14]	4.39 ± 0.18	4.59 ± 0.26	–	–
MECYDIYSKTWTKQPDLTMVRKIG [GAN]	2.14 ± 0.34	2.66 ± 0.23	–	–
EDITYVLKPTFTKQQIANLDKQAK [USP39]	4.01 ± 0.097	4.17 ± 0.13	–	–
AQQLLREFEEATGEAGWGAGEGRL [FOXJ1]	4.74 ± 0.16	4.66 ± 0.34	–	–
KQDSLVILTIMATLKIRNSNFYTV [TMEM106C]	3.25 ± 0.41	3 ± 0.67	–	–
SETHAAGHSQEKTHSREKSSQESG [CHGB]	5.67 ± 0.22	5.57 ± 0.16	–	–
KKREFRFHPIKETVVEEPVDITPY [INTS3]	2.83 ± 0.51	3.59 ± 0.68	–	–
GERVVINISGLRFETQLKTLCQFP [KCNA3]	2.61 ± 0.45	2.19 ± 0.083	–	–
YTEGISQRMRVPEKLKVAPPNADL [MFF]	3.28 ± 0.4	3.75 ± 0.32	–	–
MLGYKRHLALHAASSGDLTCGVCA [PLAGL1]	2.53 ± 0.23	2.73 ± 0.4	–	–
VKSVSPQGNSVDRMAAPRAEALFD [NCF4]	4.35 ± 0.14	4.71 ± 0.14	–	–

Sequence	protein stability index [1]	protein stability index [2]	protein stability index [3]	protein stability index [4]
EQAKENENGELQKIILPRSRVKG [ZC2HC1C]	–	–	3.42 ± 0.47	3.42 ± 0.28
RTMCAVLGLVARQEDSGLRDHSVR [AUP1]	2.43 ± 0.33	2.76 ± 0.26	–	–
REVAKELGLPYYETSVFDQFGIKD [RHOBTB1]	3.18 ± 0.44	3.27 ± 0.29	–	–
TGSTYNLSSGMAVAGMPTAYDLSS [CARM1]	3.27 ± 0.21	3.42 ± 0.44	–	–
MFLHPVDYGRKAEELLWRKVYYEV [SMG5]	2.45 ± 0.59	2.11 ± 0.22	–	–
RAKDFLPADIQAQFAISRELIRNI [SNX8]	2.38 ± 0.18	2.48 ± 0.24	–	–
TLASVPPAATFGADDLVLTLSNPQ [ELF3]	4.28 ± 0.21	4.25 ± 0.2	–	–
NLAAMTPHDFIEHFLSKMPEAEEN [CCND1]	4.49 ± 0.075	4.49 ± 0.04	–	–
GVLVEDSNNHHLMLEASEWATIEG [ZBED1]	4.2 ± 0.33	4.6 ± 0.32	–	–
GKIIGGMWRDLTDEEKQEYLNEYE [SMARCE1]	4.56 ± 0.14	4.64 ± 0.27	–	–
VVLKLFLSFSGSDVQNKLKESAQC [SNX8]	2.8 ± 0.76	2.92 ± 0.52	–	–
QYEKYSFRGFPPEDLMPLAAAYGH [P3H4]	3.01 ± 0.4	2.55 ± 0.57	–	–
IVADIELENVLDPDSFYELKSQPL [TFE3]	2.65 ± 0.47	3.09 ± 0.51	–	–
FKDKLEETKGQINNSIKDLTDGHF [SERPINB5]	4.42 ± 0.2	4.5 ± 0.2	–	–
NLRAAGAEALGKLLQQNKSIQSLT [LRRC45]	3.26 ± 0.19	3.33 ± 0.19	–	–
WGHCEIRMRYLNGLDPEPLPLMDL [SPSB1]	2.42 ± 0.59	2.36 ± 0.59	–	–
DGPCHKRRASICCTQLGSLSALKH [SCARA5]	3.79 ± 0.11	3.65 ± 0.076	–	–
EFFGSASQPAVELVSGSQSALGPP [CLINT1]	3.96 ± 0.11	3.92 ± 0.51	–	–
TYKRFEGLTQRGSIPTYMKAGKL [STK38L]	–	–	2.26 ± 0.18	2.41 ± 0.19
CRMSIRRVMPTQEVQELPIPSKLL [WSB1]	2.42 ± 0.2	2.52 ± 0.2	–	–
VASGYHYGVASCEACKAFFKRTIQ [ESRRA]	2.29 ± 0.27	2.47 ± 0.48	–	–
HTCLMISCYKGHREIARYLLEQGA [FEM1A]	2.46 ± 0.5	2.38 ± 0.35	–	–

Sequence	protein stability index [1]	protein stability index [2]	protein stability index [3]	protein stability index [4]
LRADNAFMLLTQARLFDEPQLASL [BTBD1]	2.46 ± 0.85	2.34 ± 0.47	–	–
RRFSSEDLEDPLGGLLSYDEGGIT [FBF1]	4.57 ± 0.21	4.56 ± 0.16	–	–
LSLQKEQLQLKIIEIEDEAEKWQK [TRIM29]	3.87 ± 0.094	3.9 ± 0.43	–	–
DTMLEEVENKEKDSNMPHFQTLQA [CEP70]	4.94 ± 0.22	4.93 ± 0.15	–	–
GQDTMLKAMFSGRVEVLTDAGGWV [KCTD13]	2.45 ± 0.26	2.36 ± 0.35	–	–
DQCKINKQIYNLIHLDPRTREGFT [FEM1B]	2.2 ± 0.35	2.52 ± 0.38	–	–
KLSEHLRYCDSILREMLSKKHAAY [BRD3]	2.28 ± 0.21	2.14 ± 0.21	–	–
HGIELHSDVVEYAKEKLESFIKNS [PCMTD1]	3.95 ± 0.35	4.04 ± 0.15	–	–
FKRWIYLNDQNLCIPASSSFVYGA [GAN]	2.41 ± 0.37	2.47 ± 0.38	–	–
ALQPSPSIRLPLDAPLPGSKAKPK [TBC1D10A]	4.19 ± 0.21	4.32 ± 0.34	–	–
RAKVKTDDIARIYQPKRYALSPKT [FAM98B]	3.4 ± 0.26	3.5 ± 0.13	–	–
DDFFRHESGEHFRSLLGYDPQILQ [RAD54B]	3.44 ± 0.22	3.29 ± 0.26	–	–
TWDGRPLTMAATFDDCLYALCVVD [GFOD1]	2.38 ± 0.46	2.35 ± 0.61	–	–
EDEGFVREEEDRALPENEFKKQIW [KCNA4]	5.18 ± 0.17	5.19 ± 0.2	–	–
FFLFIGVILFSSAVYFAEADDPTS [KCNA3]	2.8 ± 0.1	3.09 ± 0.2	–	–
EQVFSLGDGVSGGFFGIRDSSFL [ZBED1]	–	–	3.36 ± 0.31	3.61 ± 0.27
LPVASSSTLLPLAPSNSTSLNSTF [NFE2L1]	3.89 ± 0.11	3.65 ± 0.24	–	–
RPDGDCASSLNGGNIKGIEGHSPG [ZC2HC1A]	5.16 ± 0.18	5.02 ± 0.31	–	–
YDIAKHLTYENVERWLKELRDHAD [RAB11A]	2.66 ± 0.36	2.77 ± 0.23	–	–
GGPAGQAGRGGAAGTAGVGETGSG [MYOZ1]	5.42 ± 0.21	5.34 ± 0.32	–	–
KRDDYLEWPEYFMAVAFLSAQRSK [DCTD]	2.27 ± 0.19	2.12 ± 0.35	–	–
LPLALYTATFAVHFMVLSKSGPGD [POMT2]	3.34 ± 0.33	3.01 ± 0.61	–	–

Sequence	protein stability index [1]	protein stability index [2]	protein stability index [3]	protein stability index [4]
VMDYLPISSTSTKRTYWPDLDAKI [PLD5]	2.77 ± 0.19	2.85 ± 0.1	–	–
FEFSVDSFQIVLDPMLDFYSDKNA [TENT5D]	2.91 ± 0.93	2.52 ± 0.42	–	–
SISDLSEHVFDLILELYNIDSHLL [PDS5B]	2.49 ± 0.89	2.25 ± 0.81	–	–
GGSSGKGTTLRGRSDADLVVFLSP [OAS1]	2.73 ± 0.17	3.07 ± 0.35	–	–
TPAKSLDKFIEDYLLPDTCFRMQI [OAS1]	2.51 ± 0.51	2.65 ± 0.48	–	–
LIDRSGRHFGTILNYLRDGSVPLP [KCTD13]	2.37 ± 0.28	2.46 ± 0.32	–	–
TPGGRGDMKYGIYAVENEHMNRLQ [VTI1B]	3.69 ± 0.33	3.55 ± 0.63	–	–
FYRYKMPRLIAKVEGKGNGIKTVI [EIF5]	2.28 ± 0.45	2.26 ± 0.23	–	–
SDTYRCEERSPSFGEDYYGPSRSR [CLK3]	4.47 ± 0.12	4.52 ± 0.2	–	–
SGGGSTSAAGIEARSRALRRRWCP [SPACA3]	3.95 ± 0.12	4 ± 0.13	–	–
EAQERELRKREKAEEKERRRKEYD [LRRC59]	5.4 ± 0.18	5.49 ± 0.3	–	–
DELAHRCSSFMAPPVTDLGELRRR [CPOX]	3.92 ± 0.11	4.04 ± 0.3	–	–
FSIDEELVYENFYADFGPLNLAMV [CDC14A]	2.75 ± 0.6	2.43 ± 0.6	–	–
QTTYLEDRPMFMLQCAMEENCLSA [LOXL2]	2.38 ± 0.59	2.33 ± 0.43	–	–
GNIKGIEGHSPGNLPKFCHECGTK [ZC2HC1A]	3.82 ± 0.52	4.59 ± 0.085	–	–
PVRPVSRGCLHSHGLQEGKDLFTQ [CDC25A]	3.15 ± 0.33	3.21 ± 0.13	–	–
EEDEQLRALVRQFGQQDWKFLASH [MYBL2]	3.17 ± 0.36	3.46 ± 0.17	–	–
VLENLEDSCVLTGPDDSLWDKHAC [TRIB3]	3.69 ± 0.16	3.87 ± 0.26	–	–
GPFRTLLQFLYTGQLDEKEKDLVG [RHOBTB1]	2 ± 0.054	2.49 ± 0.3	–	–
RERAVEWRERAVEKRERALEEVER [ZBED2]	4.9 ± 0.71	5.08 ± 0.29	–	–
LISNASDALDKIRYESLTDPSKLD [HSP90AB1]	3.75 ± 0.34	3.85 ± 0.41	–	–
MKKIKKLENDTISKQLTLEQLRRE [CCDC6]	3.71 ± 1.1	3.84 ± 0.67	–	–
